Measured values as given in article PMC10691555.

How the values were obtained:
[1] = target: recombinant Her2, biotinylated (UniProt P04626); test: plate binding titration of dye-labelled affibody
[2] = target: recombinant Her2, biotinylated (UniProt P04626); test: SPR
[3] = target: Her2 on SK-BR-3 cells (human (endogenous in SK-BR-3)) (UniProt P04626); test: flow cytometry on cells

With “Her2-specific affibody ZHer2:2891 conjugated with AlexaFluor 488nm dye (designed binder)” the Kd [1] was 11 nM, the Kd [2] was 0.115 nM and the Kd [3] was 7.12 nM.
